IC50 data for ten sequences are collected here from the Immune Epitope Database (IEDB).

For one assay, the target named is HLA-B*07:02. The assay is described as follows: IEDB peptide-MHC binding, purified MHC/competitive/fluorescence; ≥ and ≤ were set here for values at or beyond the usual limits of such assays. To be noted: source organism: H1N1 subtype.
As usually defined, the IC50 is the midpoint of a concentration-inhibition curve. As to LPFDKITIM, the concentration for half-maximal inhibition (IC50) is 4810 nM.

For LPFDRPTIM, the IC50 amounted to 7910 nM.

For LPFEKTTIM, the half-inhibitory concentration (IC50) was 1190 nM. Compared with the last sequence, the IC50 is about 6.6-fold lower.

The sequence LPFGKTTIM gave an IC50 of 881 nM. The IC50 values of the last two sequences are within 1.5-fold of each other.

Staying with this assay, now noted: source organism: H1N1 subtype Influenza A/Oklahoma/7485/01.
On to LPFDKTTIM, for which the half-maximal inhibitory concentration (IC50) was found to be 192 nM.

The same assay, now with this note: source organism: H3N2 subtype.
Sequence LPFDKPTIM displayed an IC50 of 335 nM.

The sequence LPFDKQTIM gave an IC50 of 46500 nM.

For LPFEKSIVM, the IC50 was 494 nM.

LPFERATII returned a half-inhibitory concentration (IC50) of 1180 nM.

With LPFERSTVM, the IC50 is not below 149000 nM.
